One data set concerns the target T1, PriA (D. radiodurans) (Deinococcus radiodurans R1, UniProt P0DXX8 1-925).
T1 sequence: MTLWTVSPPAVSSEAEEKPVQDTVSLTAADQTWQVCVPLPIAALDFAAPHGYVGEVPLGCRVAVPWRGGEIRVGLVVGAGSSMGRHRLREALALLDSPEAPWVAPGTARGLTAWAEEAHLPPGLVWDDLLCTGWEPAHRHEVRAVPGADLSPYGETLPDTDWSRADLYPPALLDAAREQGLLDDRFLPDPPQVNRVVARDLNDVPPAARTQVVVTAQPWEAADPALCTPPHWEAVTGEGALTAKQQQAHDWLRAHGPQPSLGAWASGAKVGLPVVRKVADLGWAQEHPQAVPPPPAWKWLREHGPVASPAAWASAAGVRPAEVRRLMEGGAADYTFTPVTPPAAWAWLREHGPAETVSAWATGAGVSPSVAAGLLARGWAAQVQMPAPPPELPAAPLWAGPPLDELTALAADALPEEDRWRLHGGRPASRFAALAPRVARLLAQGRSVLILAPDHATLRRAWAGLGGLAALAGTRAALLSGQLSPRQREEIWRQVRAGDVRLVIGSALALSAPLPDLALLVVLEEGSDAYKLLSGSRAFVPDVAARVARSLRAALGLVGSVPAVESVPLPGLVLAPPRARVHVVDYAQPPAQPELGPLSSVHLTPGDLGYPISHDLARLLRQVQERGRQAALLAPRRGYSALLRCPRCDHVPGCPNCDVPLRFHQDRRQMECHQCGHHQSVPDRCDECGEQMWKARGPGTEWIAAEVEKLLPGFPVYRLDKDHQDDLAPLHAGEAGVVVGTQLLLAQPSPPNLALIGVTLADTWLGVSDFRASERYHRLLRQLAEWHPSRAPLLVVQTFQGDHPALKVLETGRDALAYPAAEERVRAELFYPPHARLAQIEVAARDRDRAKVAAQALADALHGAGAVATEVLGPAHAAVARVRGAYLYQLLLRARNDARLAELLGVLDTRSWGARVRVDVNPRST
Briefly: fluorescence anisotropy; 1 mM Mg2+, no ATP listed; apparent Kd (half-bound); 20 mM Tris-HCl pH 8, 15% glycerol, 50 mM NaCl, 1 mM MgCl2, 1 mM 2-mercaptoethanol, 0.1 g/L BSA, 1 nM DNA, 25 C. The following applies: protein: recombinant, tags: N-terminal His6 removed by thrombin, leaving Gly-Ser-His before Met1.

The next data set has as its target PriA (E. coli) (Escherichia coli K12, UniProt P17888 1-732). The description is as above. The following applies: protein: recombinant.
Where [1] appears, read: label: 3' fluorescein, single strand.
The mark [2] stands for this setting: label: 3' fluorescein on S8 (nascent lagging strand), three-way fork without gap: S5[1-25]:S6[26-50] parental, S5[26-50]:S7 leading, S6[1-25]:S8 lagging, blunt arms.

Chain of PriA (E. coli) (P17888 whole entry): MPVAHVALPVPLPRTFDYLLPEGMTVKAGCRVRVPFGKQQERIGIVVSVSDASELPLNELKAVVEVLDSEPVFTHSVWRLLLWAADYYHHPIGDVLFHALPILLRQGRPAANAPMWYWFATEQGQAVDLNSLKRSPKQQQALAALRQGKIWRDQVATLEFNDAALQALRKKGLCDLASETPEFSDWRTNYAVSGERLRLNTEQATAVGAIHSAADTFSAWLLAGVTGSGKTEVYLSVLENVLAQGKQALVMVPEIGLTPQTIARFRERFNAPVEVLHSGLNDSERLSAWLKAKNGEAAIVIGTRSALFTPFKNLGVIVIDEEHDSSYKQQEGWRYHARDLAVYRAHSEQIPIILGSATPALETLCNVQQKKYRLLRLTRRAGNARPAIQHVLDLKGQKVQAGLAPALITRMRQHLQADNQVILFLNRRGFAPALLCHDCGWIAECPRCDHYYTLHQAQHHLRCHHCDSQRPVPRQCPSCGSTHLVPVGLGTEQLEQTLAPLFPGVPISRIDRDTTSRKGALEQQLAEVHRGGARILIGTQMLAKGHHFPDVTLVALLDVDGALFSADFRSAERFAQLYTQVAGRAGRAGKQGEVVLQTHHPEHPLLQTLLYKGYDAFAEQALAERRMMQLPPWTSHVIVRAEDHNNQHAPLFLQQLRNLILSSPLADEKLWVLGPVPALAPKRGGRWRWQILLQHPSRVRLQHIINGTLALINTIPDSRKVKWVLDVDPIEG

With AAGCACAATTACCCACGC (ssDNA) [18-base mixed-sequence ssDNA], the Kd was found to be 215 ± 17 nM in the data set with PriA (D. radiodurans) (setting [1]) and 129 ± 11.9 nM with PriA (E. coli) (setting [1]).

B1: fully-duplex fork DNA, 25 bp arms (structured_DNA)
DNA 1: GTCGGATCCTCTAGACAGCTCCATGATCACTGGCACTGGTAGAATTCGGC
DNA 2: AACGTCATAGACGATTACATTGCTACATGGAGCTGTCTAGAGGATCCGAC
DNA 3: GCCGAATTCTACCAGTGCCAGTGAT
DNA 4: TAGCAATGTAATCGTCTATGACGTT
B1: the Kd is 108 ± 1.7 nM in the data set with PriA (D. radiodurans) (setting [2]) and 52.1 ± 1 nM with PriA (E. coli) (setting [2]).

(Values after article PMC4504706, “Deinococcus radiodurans PriA is a Pseudohelicase”.)
